Legend:
[1] = molecular target: cyno glucagon receptor (cyno); test: cell-based or functional assay
[2] = molecular target: GLP-1 receptor (Example 19, species not stated); test: cell-based or functional assay

## semaglutide (peptide)
[1]
  cGCGR pEC50, cAMP accumulation: < 9 -log M
[2]
  pEC50, cAMP accumulation, 0% HSA: 11.6 -log M
  pEC50, cAMP accumulation, 0.1% HSA: 10.3 -log M
  pEC50, cAMP accumulation, 4% HSA: 9.24 -log M

From patent US20230063420A1
